Data reported in the supplement of paper PMC10724198.
± gives the standard deviation of the averaged measurements.

Legend:
[1] = system: Saccharomyces cerevisiae; test: protein stability index of tFT-peptide fusion (C-terminal peptide) (PSI (0-1 scale)); higher = more stable (slower turnover)
Experimental: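 MPS profiling in S. cerevisiae of the tFT-X12 degron library: putative degron peptides plus stable controls, 12 aa, fused to the C-terminus of a sfGFP-mCherry timer. Cells are FACS-sorted into 8 mCherry/sfGFP bins and deep-sequenced. PSI runs from 0 (unstable) to 1 (stable). Backgrounds are wild type, das1Δ and doa10Δ at 30 °C, and wild type, das1Δ, cdc34-1 and cdc53-1 at 37 °C; 2-3 technical replicates each.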

[2] = system: Saccharomyces cerevisiae; test: as above; settings: genetic background: wild type; temperature: 30 C
[3] = genetic background: cdc34-1, temperature: 37 C
[4] = genetic background: cdc53-1, temperature: 37 C
[5] = genetic background: das1 deletion, temperature: 30 C
[6] = genetic background: das1 deletion, temperature: 37 C
[7] = genetic background: doa10 deletion, temperature: 30 C
[8] = genetic background: wild type, temperature: 30 C
[9] = genetic background: wild type, temperature: 37 C
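Also: PSI is a weighted mean of sequencing reads over stability bins, variants kept only with over 10 reads, mCherry proximal and sfGFP distal, peptide attached via GGGS linker.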

Row | Sequence | protein stability index [1, 3] | protein stability index [1, 4] | protein stability index [1, 5] | protein stability index [1, 6] | protein stability index [1, 7] | protein stability index [1, 8] | protein stability index [1, 9] | protein stability index [2]
1 | LAGSSSIVVVFG | 0.445 ± 0.00068 | 0.469 ± 0.04 | 0.299 ± 0.038 | 0.527 ± 0.0056 | 0.2496 ± 0.0021 | 0.297 ± 0.049 | 0.496 ± 0.026 | 0.406 ± 0.018
2 | GHFILFWVFCFM | 0.316 ± 0.058 | 0.39 ± 0.014 | 0.31 ± 0.046 | 0.453 ± 0.031 | 0.254 ± 0.0053 | 0.303 ± 0.023 | 0.409 ± 0.024 | 0.369 ± 0.024
3 | CPFLTLLISLDV | 0.52 ± 0.034 | 0.555 ± 0.044 | 0.411 ± 0.032 | 0.531 ± 0.0067 | 0.407 ± 0.011 | 0.426 ± 0.01 | 0.513 ± 0.028 | 0.478 ± 0.011
4 | VMWFVLVGLCIL | 0.4219 ± 0.0041 | 0.449 ± 0.035 | 0.382 ± 0.044 | 0.506 ± 0.021 | 0.366 ± 0.0077 | 0.378 ± 0.018 | 0.496 ± 0.006 | 0.473 ± 0.033
5 | VFSCFLFLVVLV | 0.129 ± 0.048 | 0.104 ± 0.011 | 0.205 ± 0.035 | 0.283 ± 0.023 | 0.279 ± 0.012 | 0.169 ± 0.019 | 0.2247 ± 0.0019 | 0.242 ± 0.0034
6 | VFVFLFVFLFLL | 0.147 ± 0.03 | 0.138 ± 0.041 | 0.214 ± 0.047 | 0.313 ± 0.013 | 0.397 ± 0.098 | 0.2 ± 0.038 | 0.253 ± 0.015 | 0.177 ± 0.043
7 | LVFPPVPSLVLC | 0.261 ± 0.018 | 0.278 ± 0.0066 | 0.277 ± 0.036 | 0.376 ± 0.013 | 0.192 ± 0.0059 | 0.223 ± 0.029 | 0.3099 ± 0.0013 | 0.352 ± 0.0088
8 | FMCFVLPVFVLV | 0.247 ± 0.013 | 0.282 ± 0.034 | 0.222 ± 0.029 | 0.389 ± 0.0074 | 0.196 ± 0.018 | 0.212 ± 0.017 | 0.344 ± 0.014 | 0.306 ± 0.024
9 | LLLRWWLYSCCP | 0.411 ± 0.027 | 0.495 ± 0.012 | 0.324 ± 0.032 | 0.4667 ± 0.0026 | 0.319 ± 0.016 | 0.328 ± 0.017 | 0.478 ± 0.012 | 0.42 ± 0.034
10 | FVFIFIRVFFFR | 0.174 ± 0.0037 | 0.207 ± 0.024 | 0.189 ± 0.044 | 0.308 ± 0.017 | 0.171 ± 0.0012 | 0.176 ± 0.011 | 0.2451 ± 0.0022 | 0.269 ± 0.011
11 | GLSVLLTCIHFV | 0.537 ± 0.031 | 0.65 ± 0.042 | 0.482 ± 0.013 | 0.598 ± 0.01 | 0.164 ± 0.023 | 0.176 ± 0.026 | 0.333 ± 0.014 | 0.256 ± 0.0041
12 | SYRFFLFLAVFV | 0.555 ± 0.014 | 0.554 ± 0.048 | 0.451 ± 0.034 | 0.574 ± 0.0017 | 0.442 ± 0.017 | 0.44 ± 0.012 | 0.5379 ± 0.0032 | 0.461 ± 0.021
13 | AAFLGVLCWCWG | 0.436 ± 0.039 | 0.465 ± 0.0079 | 0.363 ± 0.033 | 0.486 ± 0.0051 | 0.323 ± 0.0063 | 0.351 ± 0.019 | 0.4703 ± 0.00083 | 0.433 ± 0.011
14 | RVFLVLFLILSG | 0.297 ± 0.021 | 0.428 ± 0.0072 | 0.287 ± 0.031 | 0.469 ± 0.0087 | 0.262 ± 0.0092 | 0.286 ± 0.018 | 0.425 ± 0.0055 | 0.344 ± 0.028
15 | VLAYFCYVVFVI | 0.306 ± 0.01 | 0.343 ± 0.0056 | 0.27 ± 0.0087 | 0.3896 ± 0.0036 | 0.291 ± 0.0044 | 0.263 ± 0.011 | 0.354 ± 0.0069 | 0.314 ± 0.016
16 | LCHILAIIRRGA | 0.691 ± 0.019 | 0.737 ± 0.032 | 0.596 ± 0.037 | 0.687 ± 0.013 | 0.429 ± 0.038 | 0.449 ± 0.05 | 0.624 ± 0.036 | 0.509 ± 0.05
17 | FLCFFGGCFFLV | 0.581 ± 0.032 | 0.646 ± 0.06 | 0.523 ± 0.029 | 0.6462 ± 0.0016 | 0.4162 ± 0.0038 | 0.401 ± 0.025 | 0.5617 ± 0.0015 | 0.468 ± 0.0077
18 | LWFFVVVVVRWV | 0.102 ± 0.014 | 0.135 ± 0.0081 | 0.149 ± 0.032 | 0.2611 ± 0.0017 | 0.139 ± 0.019 | 0.136 ± 0.027 | 0.183 ± 0.03 | 0.189 ± 0.053
19 | ALMTFTLVFTYM | 0.168 ± 0.0067 | 0.296 ± 0.0055 | 0.181 ± 0.022 | 0.324 ± 0.02 | 0.209 ± 0.026 | 0.173 ± 0.027 | 0.278 ± 0.027 | 0.251 ± 0.014
20 | KVGPVLLLCRRS | 0.6524 ± 0.00046 | 0.68 ± 0.023 | 0.637 ± 0.013 | 0.699 ± 0.0081 | 0.621 ± 0.019 | 0.628 ± 0.028 | 0.69 ± 0.0066 | 0.445 ± 0.0089

Row | Sequence | protein stability index [1, 3] | protein stability index [1, 4] | protein stability index [1, 5] | protein stability index [1, 6] | protein stability index [1, 7] | protein stability index [1, 8] | protein stability index [1, 9] | protein stability index [2]
21 | EGLDVRILIQVI | 0.0334 ± 0.016 | 0.0735 ± 0.0072 | 0.179 ± 0.025 | 0.197 ± 0.0041 | 0.1362 ± 0.0008 | 0.164 ± 0.025 | 0.154 ± 0.019 | 0.294 ± 0.0068
22 | CPALTFCLLLSS | 0.539 ± 0.051 | 0.567 ± 0.0093 | 0.417 ± 0.029 | 0.5866 ± 0.0054 | 0.427 ± 0.015 | 0.383 ± 0.019 | 0.557 ± 0.01 | 0.457 ± 0.0097
23 | GLNKGKYIKLYT | 0.68 ± 0.021 | 0.756 ± 0.017 | 0.635 ± 0.035 | 0.733 ± 0.08 | 0.4605 ± 0.0033 | 0.486 ± 0.0097 | 0.641 ± 0.034 | 0.558 ± 0.089
24 | VLLVRIFLCWVC | 0.178 ± 0.013 | 0.256 ± 0.049 | 0.184 ± 0.017 | 0.338 ± 0.0097 | 0.13 ± 0.0046 | 0.118 ± 0.016 | 0.1826 ± 0.001 | 0.16 ± 0.039
25 | IIAGVWFLEILG | 0.4134 ± 0.0039 | 0.525 ± 0.009 | 0.333 ± 0.027 | 0.527 ± 0.012 | 0.308 ± 0.012 | 0.312 ± 0.022 | 0.497 ± 0.023 | 0.479 ± 0.015
26 | FFGRWWWSFLLA | 0.582 ± 0.038 | 0.634 ± 0.0095 | 0.538 ± 0.019 | 0.663 ± 0.012 | 0.262 ± 0.0098 | 0.261 ± 0.033 | 0.443 ± 0.026 | 0.364 ± 0.026
27 | SLTNYQRLIHVC | 0.147 ± 0.037 | 0.245 ± 0.064 | 0.223 ± 0.031 | 0.361 ± 0.014 | 0.0969 ± 0.0057 | 0.126 ± 0.036 | 0.0936 ± 0.0094 | 0.258 ± 0.13
28 | AFPVGFLVGLVV | 0.4381 ± 0.0028 | 0.469 ± 0.011 | 0.345 ± 0.024 | 0.499 ± 0.0067 | 0.319 ± 0.0075 | 0.348 ± 0.021 | 0.4647 ± 0.0044 | 0.431 ± 0.0065
29 | RVLVEIVYFKVF | 0.244 ± 0.0031 | 0.395 ± 0.032 | 0.256 ± 0.04 | 0.474 ± 0.012 | 0.037 ± 0.014 | 0.05 ± 0.0044 | 0.055 ± 0.00095 | 0.134 ± 0.0018
30 | LGPLGWLVLLLV | 0.415 ± 0.012 | 0.425 ± 0.014 | 0.353 ± 0.022 | 0.483 ± 0.0058 | 0.23 ± 0.015 | 0.22 ± 0.021 | 0.354 ± 0.0068 | 0.292 ± 0.035
31 | NFFLLFFFFLSF | 0.455 ± 0.037 | 0.4876 ± 0.0038 | 0.398 ± 0.045 | 0.535 ± 0.0082 | 0.4656 ± 0.0034 | 0.41 ± 0.043 | 0.512 ± 0.022 | 0.415 ± 0.049
32 | FFCCVLFSIVVY | 0.0536 ± 0.029 | 0.0863 ± 0.019 | 0.129 ± 0.026 | 0.167 ± 0.002 | 0.103 ± 0.0065 | 0.104 ± 0.028 | 0.114 ± 0.024 | 0.171 ± 0.0089
33 | CRHCFVLLYFDY | 0.304 ± 0.026 | 0.304 ± 0.013 | 0.321 ± 0.033 | 0.384 ± 0.0093 | 0.421 ± 0.017 | 0.318 ± 0.023 | 0.374 ± 0.0097 | 0.349 ± 0.00063
34 | SYVFCYICGVQS | 0.607 ± 0.038 | 0.592 ± 0.025 | 0.411 ± 0.03 | 0.596 ± 0.015 | 0.338 ± 0.031 | 0.372 ± 0.018 | 0.552 ± 0.025 | 0.428 ± 0.06
35 | LCSLSIFVLFSC | 0.192 ± 0.015 | 0.309 ± 0.027 | 0.209 ± 0.036 | 0.381 ± 0.0064 | 0.141 ± 0.0032 | 0.147 ± 0.017 | 0.272 ± 0.018 | 0.25 ± 0.005
36 | VVMASSIIVVAG | 0.0539 ± 0.0055 | 0.0512 ± 0.027 | 0.11 ± 0.097 | 0.216 ± 0.0022 | 0.105 ± 0.029 | 0.142 ± 0.058 | 0.167 ± 0.027 | 0.2528 ± 0.001
37 | TTGLLPSAYIWS | 0.758 ± 0.05 | 0.753 ± 0.024 | 0.6494 ± 0.0043 | 0.768 ± 0.033 | 0.677 ± 0.0094 | 0.667 ± 0.028 | 0.716 ± 0.04 | 0.762 ± 0.011
38 | SYFSVTLFFTVI | 0.281 ± 0.015 | 0.383 ± 0.0059 | 0.298 ± 0.032 | 0.419 ± 0.0015 | 0.252 ± 0.02 | 0.272 ± 0.016 | 0.386 ± 0.024 | 0.38872 ± 0.00027
39 | WTRAHWFFQFFV | 0.334 ± 0.061 | 0.677 ± 0.051 | 0.667 ± 0.018 | 0.739 ± 0.015 | 0.0772 ± 0.00094 | 0.0685 ± 0.0097 | 0.0858 ± 0.015 | 0.171 ± 0.0033
